{"source": "patent US6303357A", "about": "“L-α-glycerophosphate oxidase gene, recombinant DNA, and method for producing modified L-α-glycerophosphate oxidase gene” (priority 2000, dated 2001)", "format_in_all_cases": "biochemical, Enterococcus faecium", "key": {"[1]": {"tested_on": "O=P(O)(O)OCC(O)CO", "assay": "Km value of GPO (wild type control, E. coli DH5/pGPO97)", "conditions": "other: wild type GPO, 37° C., pH 7.0 activity assay", "method": "(§1) According to the invention, method for the measurement GPO activity is as follows unless otherwise noted.\n(§2) 300 mM Sodium (±)-1-glycerophosphate n-hydrate\n(§3) A 1.0 ml portion of a reaction solution having the above composition is put into a test tube and subjected to 5 minutes of preliminary incubation at 37° C., and then 20 μl of an enzyme solution is added thereto to carry out 5 minutes of the reaction at 37° C. After the reaction, 2.0 ml of 0.5% SDS solution is added to terminate the reaction, and calorimetric determination is carried out at a wavelength of 600 nm. An activity capable of forming 1 μmole of hydrogen peroxide within 1 minute was defined as 1 unit (U). [formula]\n(§4) The resulting cells were collected by centrifugation, washed with 10 mM Tris-HCl buffer (pH 8.0) containing 0.1 M sodium chloride and 1 mM EDTA and then suspended in a solution prepared by adding 1 mg/ml of lysozyme to 50 mM potassium phosphate buffer (pH 7.0) containing 10 mM EDTA and 0.1% Triton X-100, subsequently carrying out 2 hours of cell lysis at 4° C. After the cell lysis, this was subjected to ultrasonic disintegration and then centrifuged, and the supernatant was used as the enzyme solution to measure its enzyme activity, heat resistance and Km value.\n(§5) In addition, improvement of two or more properties was found by a combination of these mutations. […]"}, "[2]": {"tested_on": "O=P(O)(O)OCC(O)CO", "assay": "Km value of modified GPO Ala 225/Gly 420", "conditions": "other: Ala 225, Gly 420, 37° C., pH 7.0 activity assay", "method": "as §1, §2, §3, §4, §5"}, "[3]": {"tested_on": "O=P(O)(O)OCC(O)CO", "assay": "Km value of modified GPO Phe 130/Ala 225", "conditions": "other: Phe 130, Ala 225, 37° C., pH 7.0 activity assay", "method": "as §1, §2, §3, §4, §5"}}, "data": [{"substance": "Enterococcus faecium No. 7044 L-α-glycerophosphate oxidase (GPO), wild type, Sequence No. 1 (Enterococcus faecium DO)", "values": [{"measurement": "Km", "setting": "[1]", "result": 23.2, "unit": "mM"}]}, {"substance": "Enterococcus faecium No. 7044 L-α-glycerophosphate oxidase (GPO) variant Ala 225/Gly 420 (Enterococcus faecium DO; D212G/D427G/S17A)", "values": [{"measurement": "Km", "setting": "[2]", "result": 28.8, "unit": "mM"}]}, {"substance": "Enterococcus faecium No. 7044 L-α-glycerophosphate oxidase (GPO) variant Phe 130/Ala 225 (Enterococcus faecium DO; L137F/L267F/S362A)", "values": [{"measurement": "Km", "setting": "[3]", "result": 4.6, "unit": "mM"}]}]}
